According to patent publication US20230257470A1 (published 2023):
Substitutions are numbered along the chain they refer to. Names may count otherwise. Blank lines part the entries; values can stand above or below the binder they belong to.

Experiments:
[1] = molecular target: T1, human FcγRIIa(R) (allotype R131) (human, UniProt P12318 36-217); assay: SPR (Biacore T100), ratio of the KD values of Table 24
T1 construct: Soluble analyte in SPR; also called hFcgRIIa(R); FcgRIIaR
T1 chain: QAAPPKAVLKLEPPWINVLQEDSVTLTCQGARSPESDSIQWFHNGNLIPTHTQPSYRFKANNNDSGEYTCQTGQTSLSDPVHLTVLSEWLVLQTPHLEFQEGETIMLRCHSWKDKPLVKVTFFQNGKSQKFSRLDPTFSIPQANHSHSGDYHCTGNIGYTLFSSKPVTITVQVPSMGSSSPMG

human FcγRIa = molecular target: T2, human FcγRIa (human, UniProt P12314 16-292, limits assumed); assay: as above
T2 construct: Soluble analyte in SPR; also called hFcgRIa; FcgRIa

[2] = molecular target: T3, human FcγRIIa(H) (allotype H131) (human, UniProt P12318 36-217); assay: as above
T3 construct: Soluble analyte in SPR; also called hFcgRIIa(H); FcgRIIaH
T3 sequence: T1 chain with R133H

human FcγRIIb [3] = molecular target: T4, human FcγRIIb (human, UniProt P31994 43-217, limits assumed); assay: as above
T4 construct: Soluble analyte in SPR; also called hFcgRIIb; FcgRIIb
T4 sequence: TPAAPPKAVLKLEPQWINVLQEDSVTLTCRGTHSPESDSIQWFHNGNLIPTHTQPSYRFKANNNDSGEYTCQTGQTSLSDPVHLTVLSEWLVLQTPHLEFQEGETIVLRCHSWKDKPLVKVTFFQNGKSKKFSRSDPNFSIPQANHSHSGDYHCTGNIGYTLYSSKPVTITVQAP

human FcγRIIa type R = molecular target: T5, human FcγRIIa type R (human, UniProt P12318 36-217); assay: SPR (Biacore), antibody captured on Protein A chip, FcγR as analyte, 25 C, method of Example 14
T5 construct: also called FcγRIIaR; FcγRIIa(R)
T5 chain: T1 chain

human FcγRIIb [4] = molecular target: T6, human FcγRIIb (human, UniProt P31994 43-217, limits assumed); assay: as above
T6 construct: Whole entry (AAI46679.1); also called FcγIIB; FcgRIIb
T6 sequence: T4 sequence

human FcγRIIb [5] = molecular target: T6, human FcγRIIb; assay: ratio of SPR KD values: KD for FcγRIIaR divided by KD for FcγRIIb
mouse FcγRIIb = molecular target: T7, mouse FcγRIIb (mouse, UniProt P08101 40-217, limits assumed); assay: SPR, antibody captured by Protein L, mouse FcγR injected, pH 7.4
T7 construct: Bought protein; construct not described; also called mFcgRIIb
T7 sequence (looked up): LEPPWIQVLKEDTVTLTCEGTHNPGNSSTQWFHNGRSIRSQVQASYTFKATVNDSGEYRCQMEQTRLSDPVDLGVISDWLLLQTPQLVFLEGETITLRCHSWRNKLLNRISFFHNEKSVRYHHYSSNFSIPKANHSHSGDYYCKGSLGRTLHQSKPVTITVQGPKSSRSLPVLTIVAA

mouse FcγRIII = molecular target: T8, mouse FcγRIII (mouse, UniProt P08508 31-215); assay: as above
T8 construct: Bought protein; construct not described; also called mFcgRIII
T8 sequence (looked up): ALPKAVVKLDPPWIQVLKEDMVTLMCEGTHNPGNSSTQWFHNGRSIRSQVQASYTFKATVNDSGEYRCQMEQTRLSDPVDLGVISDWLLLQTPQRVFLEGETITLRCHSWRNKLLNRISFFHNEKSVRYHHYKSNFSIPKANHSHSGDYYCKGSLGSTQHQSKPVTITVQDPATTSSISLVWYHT

mouse FcγRI = molecular target: T9, mouse FcγRI (mouse, UniProt P26151 25-297); assay: as above
T9 construct: Bought protein; construct not described; also called mFcgRI
T9 sequence (looked up): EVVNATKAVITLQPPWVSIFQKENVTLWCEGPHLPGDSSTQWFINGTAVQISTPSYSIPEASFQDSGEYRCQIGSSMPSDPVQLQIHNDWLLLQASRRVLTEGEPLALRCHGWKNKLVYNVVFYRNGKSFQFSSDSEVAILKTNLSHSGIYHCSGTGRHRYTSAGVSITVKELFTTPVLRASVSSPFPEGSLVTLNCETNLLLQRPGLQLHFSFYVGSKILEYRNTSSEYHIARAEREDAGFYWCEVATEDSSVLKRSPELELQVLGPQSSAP

human FcγRIIIa(F) = molecular target: T10, human FcγRIIIa(F) (human, UniProt P08637 17-208, limits assumed); assay: SPR, antibody captured, FcγR as analyte, capture-corrected binding amount
T10 construct: the assay used allotype F; also called FcgRIIIaF; FcγRIIIa allotype F158

human FcγRIIb [6] = molecular target: T11, human FcγRIIb (human, UniProt P31994 43-217, limits assumed); assay: SPR, captured antibody, FcγR as analyte
T11 construct: Soluble analyte in SPR; also called FcgRIIb; FcγIIB
T11 sequence: T4 sequence

T2 sequence (P12314 16-292 limits assumed): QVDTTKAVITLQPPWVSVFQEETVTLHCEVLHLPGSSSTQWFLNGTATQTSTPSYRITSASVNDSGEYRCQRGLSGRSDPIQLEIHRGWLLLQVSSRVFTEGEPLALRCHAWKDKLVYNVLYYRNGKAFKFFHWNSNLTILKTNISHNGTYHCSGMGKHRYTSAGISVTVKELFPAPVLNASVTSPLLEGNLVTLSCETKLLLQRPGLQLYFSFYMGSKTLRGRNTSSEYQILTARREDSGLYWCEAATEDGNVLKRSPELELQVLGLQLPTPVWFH
T10 sequence (P08637 other isoform, or with tags, fused parts or gaps limits assumed): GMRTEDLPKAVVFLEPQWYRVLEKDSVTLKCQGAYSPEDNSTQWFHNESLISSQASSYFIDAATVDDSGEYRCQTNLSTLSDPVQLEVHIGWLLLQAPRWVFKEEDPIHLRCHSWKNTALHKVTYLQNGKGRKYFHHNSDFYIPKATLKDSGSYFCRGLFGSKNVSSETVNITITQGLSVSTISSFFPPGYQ

B1: IgG1-v1 (antibody containing IL6R-G1d_v1 as H chain and IL6R-L as L chain) (antibody)
heavy: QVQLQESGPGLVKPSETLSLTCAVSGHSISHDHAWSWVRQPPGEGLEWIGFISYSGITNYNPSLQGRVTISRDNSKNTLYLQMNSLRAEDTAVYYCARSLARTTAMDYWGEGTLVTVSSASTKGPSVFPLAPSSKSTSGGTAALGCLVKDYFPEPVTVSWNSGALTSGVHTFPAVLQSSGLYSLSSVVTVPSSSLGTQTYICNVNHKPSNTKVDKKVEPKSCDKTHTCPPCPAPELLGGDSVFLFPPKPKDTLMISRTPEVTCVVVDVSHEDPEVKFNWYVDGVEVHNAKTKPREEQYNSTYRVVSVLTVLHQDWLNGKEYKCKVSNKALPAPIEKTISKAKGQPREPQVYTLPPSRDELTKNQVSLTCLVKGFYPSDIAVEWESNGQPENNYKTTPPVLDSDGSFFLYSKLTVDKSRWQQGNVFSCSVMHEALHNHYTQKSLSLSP
light: DIQMTQSPSSLSASVGDRVTITCRASQDISSYLNWYQQKPGKAPKLLIYYTSRLHSGVPSRFSGSGSGTDFTFTISSLQPEDIATYYCQQGNTLPYTFGQGTKVEIK
notes: IL6R-G1d with P238D (EU numbering); also called P238D
relative KD (KD of IgG1 / KD of the variant) [1]: 0.1 fold | relative KD (KD of IgG1 / KD of the variant) (human FcγRIa): 0.047 fold | relative KD (KD of IgG1 / KD of the variant) [2]: 0.014 fold | relative KD (KD of IgG1 / KD of the variant) (human FcγRIIb [3]): 4.8 fold

B2: IL6R-B3/IL6R-L (antibody, human IgG1)
heavy: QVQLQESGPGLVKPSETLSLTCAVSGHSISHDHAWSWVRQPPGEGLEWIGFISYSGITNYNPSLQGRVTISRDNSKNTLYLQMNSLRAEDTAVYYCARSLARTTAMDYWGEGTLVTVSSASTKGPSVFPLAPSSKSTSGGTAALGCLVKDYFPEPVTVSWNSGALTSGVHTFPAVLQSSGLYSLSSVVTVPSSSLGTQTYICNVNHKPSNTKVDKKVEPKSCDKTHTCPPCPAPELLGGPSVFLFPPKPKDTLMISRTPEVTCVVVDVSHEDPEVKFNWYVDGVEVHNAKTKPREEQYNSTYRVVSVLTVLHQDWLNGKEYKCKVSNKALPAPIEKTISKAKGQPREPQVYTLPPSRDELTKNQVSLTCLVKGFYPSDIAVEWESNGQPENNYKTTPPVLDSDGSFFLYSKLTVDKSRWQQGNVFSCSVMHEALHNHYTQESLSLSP
light: B1 light
notes: IL6R-G1d with K439E (EU numbering); also called parent polypeptide
Kd (human FcγRIIa type R): 11 µM

B5: IL6R-BP180/IL6R-L (antibody, human IgG1, name in EU numbering)
heavy: QVQLQESGPGLVKPSETLSLTCAVSGHSISHDHAWSWVRQPPGEGLEWIGFISYSGITNYNPSLQGRVTISRDNSKNTLYLQMNSLRAEDTAVYYCARSLARTTAMDYWGEGTLVTVSSASTKGPSVFPLAPSSKSTSGGTAALGCLVKDYFPEPVTVSWNSGALTSGVHTFPAVLQSSGLYSLSSVVTVPSSSLGTQTYICNVNHKPSNTKVDKKVEPKSCDKTHTCPPCPAPELLGDDSVFLFPPKPKDTLMISRTPEVTCVVVDVSHEDGEVKFNWYVDGVEVHNAKTKPREEQYNSTYRVVSVLTVLHQDWLNGKEYKCKVSNKALPKPIEKTISKAKGQPREPQVYTLPPSRDELTKNQVSLTCLVKGFYPSDIAVEWESNGQPENNYKTTPPVLDSDGSFFLYSKLTVDKSRWQQGNVFSCSVMHEALHNHYTQESLSLSP
light: B1 light
notes: Alterations introduced into IL6R-B3 (EU numbering)
KD(IIaR)/KD(IIb) (human FcγRIIb [5]): 18.5

B8: IL6R-BP179/IL6R-L (antibody, human IgG1, name in EU numbering)
heavy: B5 heavy with K328A
light: B1 light
notes: as for B5
KD(IIaR)/KD(IIb) (human FcγRIIb [5]): 15.7

B9: IL6R-BP089/IL6R-L (antibody, human IgG1, name in EU numbering)
heavy: B5 heavy with L236Y, D239G, G273P, K328A
light: B1 light
notes: as for B5
KD(IIaR)/KD(IIb) (human FcγRIIb [5]): 15.5

B10: IL6R-G1d/IL6R-L (antibody, human IgG1)
heavy: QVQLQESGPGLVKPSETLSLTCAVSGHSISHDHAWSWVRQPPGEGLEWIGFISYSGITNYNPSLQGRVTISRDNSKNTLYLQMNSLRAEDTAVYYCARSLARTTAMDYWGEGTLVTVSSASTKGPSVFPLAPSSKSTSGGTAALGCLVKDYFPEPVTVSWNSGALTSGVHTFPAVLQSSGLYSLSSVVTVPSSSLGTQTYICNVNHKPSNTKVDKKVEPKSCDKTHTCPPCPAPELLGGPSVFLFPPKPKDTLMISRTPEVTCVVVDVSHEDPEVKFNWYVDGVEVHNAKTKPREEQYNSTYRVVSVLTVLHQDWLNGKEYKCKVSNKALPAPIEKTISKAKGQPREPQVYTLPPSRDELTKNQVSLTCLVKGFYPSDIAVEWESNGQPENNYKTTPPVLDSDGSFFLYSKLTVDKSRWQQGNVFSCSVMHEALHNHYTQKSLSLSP
light: B1 light
notes: Anti-human IL-6 receptor IgG1, G1d constant region; also called IgG1
Kd (human FcγRIIb [4]): 26 µM | Kd (human FcγRIIa type R): 10 µM

B11: IL6R-BP146/IL6R-L (antibody, human IgG1, name in EU numbering)
heavy: B5 heavy with L236Y, G273P, K328A, K332A
light: B1 light
notes: as for B5
Kd (human FcγRIIa type R): 21 µM

B13: VH3/L(WT)-IgG1-F821 (antibody)
heavy: B5 heavy with L237R, D239G, D240P, S241K, M254Y, G273P, K332A, N436Y, E441K
light: not shown
notes: L235R/S239K variant of VH3-IgG1-F11 with L(WT)-CK; also called VH3-IgG1-F821; copies: 2 + 2
binding result (mouse FcγRIIb): no binding | binding result (mouse FcγRIII): no binding | binding result (mouse FcγRI): no binding

B14: VH3/L(WT)-IgG1-F1009 (antibody)
heavy: QVQLQESGPGLVKPSETLSLTCAVSGHSISHDHAWSWVRQPPGEGLEWIGFISYSGITNYNPSLQGRVTISRDNSKNTLYLQMNSLRAEDTAVYYCARSLARTTAMDYWGEGTLVTVSSASTKGPSVFPLAPSSKSTSGGTAALGCLVKDYFPEPVTVSWNSGALTSGVHTFPAVLQSSGLYSLSSVVTVPSSSLGTQTYICNVNHKPSNTKVDKKVEPKSCDKTHTCPPCPAPELRGGPKVFLFPPKPKDVLYISRTPEVTCVVVDVSHEDPEVKFNWYVDGVEVHNAKTKPREEQYNSTYRVVSVLQPLHADWLNGKEYKCKVSNKALPAPIEKTISKAKGQPREPQVYTLPPSRDELTKNQVSLTCLVKGFYPSDIAVEWESNGQPENNYKTTPPVLDSDGSFFLYSKLTVDKSRWQQGNVFSCSVMHEALHYHVTQKSLSLSP
light: not shown
notes: L235R/S239K variant of VH3-IgG1-F947 with L(WT)-CK; also called VH3-IgG1-F1009; copies: 2 + 2
binding result (mouse FcγRIIb): no binding | binding result (mouse FcγRIII): no binding | binding result (mouse FcγRI): no binding

More lines, now with the values ahead:

Kd (human FcγRIIb [4]): 12 µM
B3: IL6R-BF648/IL6R-L (antibody, human IgG1, name in EU numbering)
heavy: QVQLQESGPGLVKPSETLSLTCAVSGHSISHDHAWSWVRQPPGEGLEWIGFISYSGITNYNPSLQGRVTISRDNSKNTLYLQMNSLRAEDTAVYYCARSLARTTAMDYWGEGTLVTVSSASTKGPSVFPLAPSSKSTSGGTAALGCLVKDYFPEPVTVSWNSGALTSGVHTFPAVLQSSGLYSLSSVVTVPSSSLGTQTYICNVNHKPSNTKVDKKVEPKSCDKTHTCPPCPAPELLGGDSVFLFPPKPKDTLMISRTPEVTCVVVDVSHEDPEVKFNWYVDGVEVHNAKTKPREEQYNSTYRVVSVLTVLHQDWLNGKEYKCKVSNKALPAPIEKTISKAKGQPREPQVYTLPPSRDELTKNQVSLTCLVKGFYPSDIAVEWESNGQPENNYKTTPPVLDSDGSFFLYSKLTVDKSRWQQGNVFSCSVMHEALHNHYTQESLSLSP
light: B1 light
notes: Alteration introduced into IL6R-B3; positions in EU numbering

relative KD (KD of IgG1 / KD of the variant) [1]: 522 fold | relative KD (KD of IgG1 / KD of the variant) (human FcγRIa): 1.8 fold | relative KD (KD of IgG1 / KD of the variant) [2]: 0.51 fold | relative KD (KD of IgG1 / KD of the variant) (human FcγRIIb [3]): 408 fold
B4: IgG1-v3 (antibody containing IL6R-G1d_v3 as H chain and IL6R-L as L chain) (antibody)
heavy: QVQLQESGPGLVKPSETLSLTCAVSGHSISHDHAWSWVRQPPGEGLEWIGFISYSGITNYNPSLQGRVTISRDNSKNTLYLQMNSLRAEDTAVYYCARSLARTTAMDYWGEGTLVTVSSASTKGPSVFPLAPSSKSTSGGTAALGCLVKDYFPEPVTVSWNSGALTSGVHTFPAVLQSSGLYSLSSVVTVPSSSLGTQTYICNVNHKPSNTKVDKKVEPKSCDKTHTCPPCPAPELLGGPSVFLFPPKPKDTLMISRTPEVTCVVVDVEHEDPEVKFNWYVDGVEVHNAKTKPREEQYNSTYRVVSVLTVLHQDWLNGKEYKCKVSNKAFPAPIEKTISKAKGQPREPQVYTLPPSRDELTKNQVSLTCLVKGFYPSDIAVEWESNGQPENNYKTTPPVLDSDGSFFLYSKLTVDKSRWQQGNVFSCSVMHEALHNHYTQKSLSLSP
light: B1 light
notes: IL6R-G1d with S267E/L328F (EU numbering); also called S267E/L328F

KD(IIaR)/KD(IIb) (human FcγRIIb [5]): 15.9
B6: IL6R-BP151/IL6R-L (antibody, human IgG1, name in EU numbering)
heavy: B5 heavy with E235D, L236Y, G273P, K328A, K332R
light: B1 light
notes: as for B5

relative KD (KD of IgG1 / KD of the variant) [1]: 0.41 fold | relative KD (KD of IgG1 / KD of the variant) (human FcγRIa): 0.74 fold | relative KD (KD of IgG1 / KD of the variant) [2]: 0.064 fold | relative KD (KD of IgG1 / KD of the variant) (human FcγRIIb [3]): 2.3 fold
B7: IgG1-v2 (antibody containing IL6R-G1d_v2 as H chain and IL6R-L as L chain) (antibody)
heavy: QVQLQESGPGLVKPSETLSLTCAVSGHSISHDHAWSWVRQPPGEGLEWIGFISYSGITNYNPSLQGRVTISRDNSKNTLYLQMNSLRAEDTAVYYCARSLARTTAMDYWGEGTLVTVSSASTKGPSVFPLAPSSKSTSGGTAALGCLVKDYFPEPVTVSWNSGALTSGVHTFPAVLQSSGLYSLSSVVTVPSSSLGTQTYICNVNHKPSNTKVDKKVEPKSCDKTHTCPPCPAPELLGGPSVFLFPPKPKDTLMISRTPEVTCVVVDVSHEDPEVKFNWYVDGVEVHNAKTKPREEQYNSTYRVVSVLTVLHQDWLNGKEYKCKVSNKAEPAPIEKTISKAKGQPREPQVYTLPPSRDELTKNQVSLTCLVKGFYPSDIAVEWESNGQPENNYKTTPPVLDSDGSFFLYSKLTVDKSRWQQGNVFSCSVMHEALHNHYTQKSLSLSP
light: B1 light
notes: IL6R-G1d with L328E (EU numbering); also called L328E

Kd (human FcγRIIb [4]): 10 µM
B12: IL6R-2B261/IL6R-L (antibody, human IgG1, name in EU numbering)
heavy: B5 heavy with E235D, D239G, G273P, Y298D, K332A
light: B1 light
notes: as for B5

binding result (mouse FcγRIIb): no binding | binding result (mouse FcγRIII): no binding | binding result (mouse FcγRI): no binding
B15: VH3/L(WT)-IgG1-F939 (antibody)
heavy: B14 heavy with V252T, Q309T, P310V, A313Q
light: not shown
notes: L235R/S239K variant of VH3-IgG1-F890 with L(WT)-CK; also called VH3-IgG1-F939; copies: 2 + 2

relative binding activity (human FcγRIIIa(F)): 1 % of GpH7-B3/GpL16-k0
B16: GpH7-B3 N325F/GpL16-k0 (antibody, human IgG1)
heavy: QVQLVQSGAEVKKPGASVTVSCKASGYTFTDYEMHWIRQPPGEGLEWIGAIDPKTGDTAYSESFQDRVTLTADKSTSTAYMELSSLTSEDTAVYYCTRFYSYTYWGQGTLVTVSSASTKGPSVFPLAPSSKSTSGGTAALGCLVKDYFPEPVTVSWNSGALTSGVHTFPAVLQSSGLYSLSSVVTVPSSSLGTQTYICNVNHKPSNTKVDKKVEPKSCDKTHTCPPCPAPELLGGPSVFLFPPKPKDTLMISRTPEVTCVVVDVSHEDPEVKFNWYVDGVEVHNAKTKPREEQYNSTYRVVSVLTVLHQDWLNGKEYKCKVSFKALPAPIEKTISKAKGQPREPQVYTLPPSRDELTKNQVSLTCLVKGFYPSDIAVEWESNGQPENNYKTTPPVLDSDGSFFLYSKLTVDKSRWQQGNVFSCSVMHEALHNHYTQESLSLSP
light: DIVMTQSPLSLPVTPGEPASISCQASESLVHSNRNTYLHWYLQKPGQSPQLLIYKVSNRFSGVPDRFSGSGSGTDFTLKISRVEAEDVGVYYCSQNTHVPPTFGQGTKVEIE
notes: Anti-glypican-3 human IgG1 with B3 constant region (G1d with K439E); also called B3 variant; copies: 2 + 2

relative binding activity (human FcγRIIIa(F)): 12 % of GpH7-B3/GpL16-k0
B17: GpH7-B3 Y300R/GpL16-k0 (antibody, human IgG1)
heavy: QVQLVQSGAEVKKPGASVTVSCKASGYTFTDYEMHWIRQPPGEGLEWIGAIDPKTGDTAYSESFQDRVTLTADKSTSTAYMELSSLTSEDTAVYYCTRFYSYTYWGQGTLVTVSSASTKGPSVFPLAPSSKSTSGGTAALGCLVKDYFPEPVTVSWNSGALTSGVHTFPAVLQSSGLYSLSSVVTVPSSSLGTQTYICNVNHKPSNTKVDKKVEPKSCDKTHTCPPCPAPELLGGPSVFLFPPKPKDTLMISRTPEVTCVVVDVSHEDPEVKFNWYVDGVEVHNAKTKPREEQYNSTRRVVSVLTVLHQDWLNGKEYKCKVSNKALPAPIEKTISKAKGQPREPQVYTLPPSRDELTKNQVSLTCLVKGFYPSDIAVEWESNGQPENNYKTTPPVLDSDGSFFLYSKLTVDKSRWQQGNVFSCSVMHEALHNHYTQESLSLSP
light: B16 light
notes: as for B16

relative binding activity (human FcγRIIb [6]): 2 % of GpH7-B3/GpL16-k0
B18: GpH7-B3 variant D265M/GpL16-k0 (antibody, human IgG1)
heavy: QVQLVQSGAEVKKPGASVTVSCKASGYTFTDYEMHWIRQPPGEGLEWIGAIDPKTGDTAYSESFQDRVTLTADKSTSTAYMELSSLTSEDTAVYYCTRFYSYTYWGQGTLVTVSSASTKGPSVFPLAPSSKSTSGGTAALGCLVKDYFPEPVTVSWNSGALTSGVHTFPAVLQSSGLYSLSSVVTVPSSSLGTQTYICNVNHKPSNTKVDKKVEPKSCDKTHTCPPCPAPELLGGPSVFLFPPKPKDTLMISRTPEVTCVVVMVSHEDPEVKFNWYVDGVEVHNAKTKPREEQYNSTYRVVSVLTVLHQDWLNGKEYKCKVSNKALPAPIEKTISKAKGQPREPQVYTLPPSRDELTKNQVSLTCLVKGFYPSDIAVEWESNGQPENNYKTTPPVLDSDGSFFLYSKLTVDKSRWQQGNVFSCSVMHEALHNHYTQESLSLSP
light: B16 light
notes: copies: 2 + 2

relative binding activity (human FcγRIIb [6]): 1 % of GpH7-B3/GpL16-k0
B19: GpH7-B3 variant G237R/GpL16-k0 (antibody, human IgG1)
heavy: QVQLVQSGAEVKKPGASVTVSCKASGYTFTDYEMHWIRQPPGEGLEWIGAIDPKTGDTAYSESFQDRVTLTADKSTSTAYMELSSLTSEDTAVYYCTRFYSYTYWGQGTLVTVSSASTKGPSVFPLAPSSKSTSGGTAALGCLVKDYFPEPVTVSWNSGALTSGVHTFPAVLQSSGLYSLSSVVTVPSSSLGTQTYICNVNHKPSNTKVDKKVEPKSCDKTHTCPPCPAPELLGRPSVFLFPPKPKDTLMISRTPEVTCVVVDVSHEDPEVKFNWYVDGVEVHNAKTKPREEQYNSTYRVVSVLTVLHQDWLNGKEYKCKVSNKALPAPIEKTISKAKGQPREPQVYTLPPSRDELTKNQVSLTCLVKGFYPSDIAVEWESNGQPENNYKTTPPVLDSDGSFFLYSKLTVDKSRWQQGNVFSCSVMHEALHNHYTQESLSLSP
light: B16 light
notes: copies: 2 + 2
